One block for each substance: values may come before it.
Key:
[1] = SEC-MALS; complexes and subcomplexes purified from insect cells; size exclusion chromatography coupled to multi-angle light scattering (Figures S1B-E and S8E-G)
[2] = biological target: CfBRCC36(Ala205Asp + Ile212Asp)–KIAA0157ΔC heterodimer (C. floridanus); test: as above
[3] = biological target: K63-linked diUb covalently coupled to AlexaFluor-488 (UniProt P0CG48); test: fluorescence polarisation; complex titrated against 10 nM AlexaFluor-488 K63-linked diUb tracer
[4] = biological target: CfBRCC36(Ile212Asp)–KIAA0157ΔC heterodimer (C. floridanus)
[5] = biological target: H. Sapiens ARISC (BRCC36–Abraxas–BRCC45–MERIT40) complex (H. sapiens) (UniProt P46736); test: SEC-MALS; complexes and subcomplexes purified from insect cells; size exclusion chromatography coupled to multi-angle light scattering (Figures S1B-E and S8E-G)
[6] = biological target: CfBRCC36–KIAA0157–BRCC45 triple complex (C. floridanus) (UniProt E2AXC7); test: as above
[7] = biological target: CfBRCC36(Ala205Asp)–KIAA0157ΔC heterodimer (C. floridanus)
[8] = biological target: Cf BRCC36–KIAA0157 binary complex (C. floridanus) (UniProt E2AXC7); test: SEC-MALS; complexes and subcomplexes purified from insect cells; size exclusion chromatography coupled to multi-angle light scattering (Figures S1B-E and S8E-G)
[9] = biological target: unlabeled K63 linked diUb (UniProt P0CG48)
[10] = biological target: CfBRCC36–KIAA0157ΔC heterodimer (C. floridanus); test: SEC-MALS; complexes and subcomplexes purified from insect cells; size exclusion chromatography coupled to multi-angle light scattering (Figures S1B-E and S8E-G)

Substance: CfBRCC36(Ile212Asp)–KIAA0157ΔC heterodimer
percent eluting as monomers of heterodimers [1]: 70% and 36% of proteins, respectively, eluting as monomers of heterodimers

Substance: BRCC36 (E30A+A205D+I212D)-KIAA0157ΔC complex (from UniProt E2AXC7 1-253)
Kd [3]: 2.2 µM

Substance: CfBRCC36(Ile212Asp)–KIAA0157ΔC heterodimer (complex)
cleavage of a K63-linked diUb fluorigenic substrate in vitro, at near saturating substrate concentrations (>10 μM diUb) (fold less active than WT) [4]: 10

Substance: BRCC36(E30A)-KIAA0157ΔC complex (from UniProt E2AXC7 1-253)
Kd [3]: 2.4 µM

Substance: CfBRCC36(Ala205Asp)–KIAA0157ΔC heterodimer
percent eluting as monomers of heterodimers [1]: 70% and 36% of proteins, respectively, eluting as monomers of heterodimers

Substance: CfBRCC36(Ala205Asp + Ile212Asp)–KIAA0157ΔC heterodimer
percent eluting as a monomer of heterodimers [1]: 85% major peak

Substance: Cf BRCC36–KIAA0157 binary complex (from UniProt E2AXC7 1-253)
stoichiometry N [8]: 2

Substance: CfBRCC36–KIAA0157ΔC heterodimer (complex)
Km, Michaelis-Menten kinetic analysis for cleavage of K63 diUb (Figure 6B) [9]: 4.2 µM
stoichiometry N [10]: 2

Continued, values first:

percent eluting as super dimers [2]: 15%
Substance: CfBRCC36(Ala205Asp + Ile212Asp)–KIAA0157ΔC heterodimer (complex)

stoichiometry N [5]: 2
Substance: H. Sapiens ARISC (BRCC36–Abraxas–BRCC45–MERIT40) complex (from UniProt P46736 1-316; Q6UWZ7 1-409; Q9NXR7 1-383; Q9NWV8 1-329)

stoichiometry N [6]: 2
Substance: CfBRCC36–KIAA0157–BRCC45 triple complex (from UniProt E2AXC7 1-253)

cleavage of a K63-linked diUb fluorigenic substrate in vitro, at near saturating substrate concentrations (>10 μM diUb) (fold less active than WT) [7]: 10
Substance: CfBRCC36(Ala205Asp)–KIAA0157ΔC heterodimer (complex)
